Measurements published in article PMC11077089, “Molecular basis of A. thaliana KEOPS complex in biosynthesizing tRNA t^6A” (Nucleic Acids Research, 2024).

Key:
[1] = biological target: the molecule itself; experiment: cell-based or functional assay
[2] = biological target: the molecule itself; experiment: SEC; oligomeric state from elution volumes (Superdex 200 Increase 10/300 GL, HiLoad 16/600 Superdex 200) with reference to ScKEOPS (monomeric, 117.7 kDa) and standard calibration
[3] = biological target: the molecule itself; experiment: cryo-EM structure; AtKEOPS mixed with tRNA^ArgCCU at 1:2; tRNA not seen; six subunits resolved (KAE1, PCC1, PCC1, KAE1, BUD32, CGI121); 3.2 Å after local refinement

| Protein | stoichiometry N [2] | other results |
| --- | --- | --- |
| A. thaliana KEOPS variant PCC1^R73D–KAE1–BUD32–CGI121 (complex, Arabidopsis thaliana) chain 1: MKKKMIAIGFEGSANKIGVGIVTLDGTILANPRHTYITPPGHGFLPRETAHHHLDHVLPLVKSALETSQVTPEEIDCICYTKGPGMGAPLQVSAIVVRVLSQLWKKPIVAVNHCVAHIEMGRVVTGADDPVVLYVSGGNTQVIAYSEGRYRIFGETIDIAVGNCLDRFARVLKLSNDPSPGYNIEQLAKKGENFIDLPYAVKGMDVSFSGILSYIETTAEEKLKNNECTPADLCYSLQETVFAMLVEITERAMAHCDKKDVLIVGGVGCNERLQEMMRTMCSERDGKLFATDDRYCIDNGAMIAYTGLLAFVNGIETPIEDSTFTQRFRTDEVHAVWREKEAVLLGDKKVAAN chain 2: MDCEENVRDESLVLIKQGAEARVFESTFAGRRSIVKERFSKKYRHPILDAKLTLKRLNAEARCMTKARKLGVCTPVLYAVDTLLHSLTLEYIEGVSVKDIFLEFGTNGVVEERLDDVAAQIGAAIAKLHDGGLAHGDLTTSNMLVRSGTNQLVLIDFGLSVTSTLPEDKAVDLYVLERALLSMHSSCGNVMDRILTAYRKSSKQWSATFNKLAQVRQRGRKRTMIG chain 3: MKVFNLDRGNTLSVSLFSGVTNSKELLNSMLDGSLKLEVSFLNASLIPDIFPLLAAAQKALISKSRDSLSTRTLHSELVYNYSGSKHITESLKRCGISENTTYILAARFNASPVEMEEVAKLINGKEIDLEELKTHANQANILKHYKITSQELGISSLGDAIVCRIAARDAL chain 4: MAATVPATTRSDQTWDFSCNLDVSFESEEHALIAYTSLAVDKELQPDKVRRVMSVSNNKLSVHFEAIEARLLDASFSAFVDVLTLATRTIQEFGQK |  | t^6A-catalytic activity relative to AtKEOPS dimer [1]: ~25% |
| A. thaliana KEOPS complex (PCC1–KAE1–BUD32–CGI121) (complex, Arabidopsis thaliana, AtKAE1, A. thaliana, as m1; AtBUD32, A. thaliana, as m2; AtCGI121, A. thaliana, as m3; AtPCC1, A. thaliana, as m4; Written as the four-subunit protomer; In solution the wild type is an eight-subunit dimer (K2B2C2P2) of this protomer, and it stood in that form in the pull-down from seedling lysate; also called AtKEOPS; KBCP; source: reconstituted from purified KAE1–PCC1 and BUD32–CGI121 (E. coli) …) chain 1: MKKKMIAIGFEGSANKIGVGIVTLDGTILANPRHTYITPPGHGFLPRETAHHHLDHVLPLVKSALETSQVTPEEIDCICYTKGPGMGAPLQVSAIVVRVLSQLWKKPIVAVNHCVAHIEMGRVVTGADDPVVLYVSGGNTQVIAYSEGRYRIFGETIDIAVGNCLDRFARVLKLSNDPSPGYNIEQLAKKGENFIDLPYAVKGMDVSFSGILSYIETTAEEKLKNNECTPADLCYSLQETVFAMLVEITERAMAHCDKKDVLIVGGVGCNERLQEMMRTMCSERDGKLFATDDRYCIDNGAMIAYTGLLAFVNGIETPIEDSTFTQRFRTDEVHAVWREKEAVLLGDKKVAAN chain 2: MDCEENVRDESLVLIKQGAEARVFESTFAGRRSIVKERFSKKYRHPILDAKLTLKRLNAEARCMTKARKLGVCTPVLYAVDTLLHSLTLEYIEGVSVKDIFLEFGTNGVVEERLDDVAAQIGAAIAKLHDGGLAHGDLTTSNMLVRSGTNQLVLIDFGLSVTSTLPEDKAVDLYVLERALLSMHSSCGNVMDRILTAYRKSSKQWSATFNKLAQVRQRGRKRTMIG chain 3: MKVFNLDRGNTLSVSLFSGVTNSKELLNSMLDGSLKLEVSFLNASLIPDIFPLLAAAQKALISKSRDSLSTRTLHSELVYNYSGSKHITESLKRCGISENTTYILAARFNASPVEMEEVAKLINGKEIDLEELKTHANQANILKHYKITSQELGISSLGDAIVCRIAARDAL chain 4: MAATVPATTRSDQTWDFSCNLDVSFESEEHALIAYTSLAVDKELQPDKVRRVMSVSNNKLSVHFEAIEARLLRASFSAFVDVLTLATRTIQEFGQK | 2 |  |
| A. thaliana KAE1–PCC1 subcomplex (complex, Arabidopsis thaliana, AtKAE1, A. thaliana, as m1; AtPCC1, A. thaliana, as m4; Written as the KAE1–PCC1 heterodimer unit, which by SEC forms a dimer of itself; also called KP; AtKP; source: E. coli (Rosetta DE3 pLysS or BL21), co-expressed from pET26a–AtKAE1–PCC1-6His, purified (Ni-NTA, SEC)) chain 1: MKKKMIAIGFEGSANKIGVGIVTLDGTILANPRHTYITPPGHGFLPRETAHHHLDHVLPLVKSALETSQVTPEEIDCICYTKGPGMGAPLQVSAIVVRVLSQLWKKPIVAVNHCVAHIEMGRVVTGADDPVVLYVSGGNTQVIAYSEGRYRIFGETIDIAVGNCLDRFARVLKLSNDPSPGYNIEQLAKKGENFIDLPYAVKGMDVSFSGILSYIETTAEEKLKNNECTPADLCYSLQETVFAMLVEITERAMAHCDKKDVLIVGGVGCNERLQEMMRTMCSERDGKLFATDDRYCIDNGAMIAYTGLLAFVNGIETPIEDSTFTQRFRTDEVHAVWREKEAVLLGDKKVAAN chain 2: MAATVPATTRSDQTWDFSCNLDVSFESEEHALIAYTSLAVDKELQPDKVRRVMSVSNNKLSVHFEAIEARLLRASFSAFVDVLTLATRTIQEFGQK | 2 |  |
| A. thaliana KAE1–BUD32–PCC1 subcomplex (complex, Arabidopsis thaliana, AtKAE1, A. thaliana; AtBUD32, A. thaliana; AtPCC1, A. thaliana; Written as the three-subunit unit, which by SEC forms a dimer of itself; also called KBP; AtKBP; source: recombinant, heterologous expression; copies: + +) chain 1: MKKKMIAIGFEGSANKIGVGIVTLDGTILANPRHTYITPPGHGFLPRETAHHHLDHVLPLVKSALETSQVTPEEIDCICYTKGPGMGAPLQVSAIVVRVLSQLWKKPIVAVNHCVAHIEMGRVVTGADDPVVLYVSGGNTQVIAYSEGRYRIFGETIDIAVGNCLDRFARVLKLSNDPSPGYNIEQLAKKGENFIDLPYAVKGMDVSFSGILSYIETTAEEKLKNNECTPADLCYSLQETVFAMLVEITERAMAHCDKKDVLIVGGVGCNERLQEMMRTMCSERDGKLFATDDRYCIDNGAMIAYTGLLAFVNGIETPIEDSTFTQRFRTDEVHAVWREKEAVLLGDKKVAAN chain 2: MDCEENVRDESLVLIKQGAEARVFESTFAGRRSIVKERFSKKYRHPILDAKLTLKRLNAEARCMTKARKLGVCTPVLYAVDTLLHSLTLEYIEGVSVKDIFLEFGTNGVVEERLDDVAAQIGAAIAKLHDGGLAHGDLTTSNMLVRSGTNQLVLIDFGLSVTSTLPEDKAVDLYVLERALLSMHSSCGNVMDRILTAYRKSSKQWSATFNKLAQVRQRGRKRTMIG chain 3: MAATVPATTRSDQTWDFSCNLDVSFESEEHALIAYTSLAVDKELQPDKVRRVMSVSNNKLSVHFEAIEARLLRASFSAFVDVLTLATRTIQEFGQK | 2 |  |
| Arabidopsis thaliana PCC1 (natural protein, AtPCC1, A. thaliana, from chemically synthesized DNA; Forms a homodimer in the cryo-EM structure; also called AtPCC1; AT5G53045; source: E. coli (Rosetta DE3 pLysS or BL21), co-expressed with KAE1, purified (Ni-NTA, SEC)) MAATVPATTRSDQTWDFSCNLDVSFESEEHALIAYTSLAVDKELQPDKVRRVMSVSNNKLSVHFEAIEARLLRASFSAFVDVLTLATRTIQEFGQK |  | binding result [3]: binds |
